# Laboratory results taken from publication PMC4132707, “A dimeric state for PRC2” (Nucleic Acids Research, 2014).
# B1: EZH2, untagged (cleavable MBP tag removed) (natural protein)
# chain: not shown
# notes: forward primer starts at codon 2 (GQTGKKS), reverse primer holds the stop codon; Present as a subunit of the co-purified PRC2 complex, never isolated alone; also called untagged EZH2; source: Sf9, baculovirus, co-expressed and co-purified with the other PRC2 subunits (amylose resin, PreScission cleavage, SEC); not shown: His6, N-terminal, cleaved; MBP, N-terminal, cleaved
# Target: T1, MBP-EZH2 (uncleavable MBP fusion, three-alanine linker) (human, UniProt Q15910-2 2-751)
# T1 construct: forward primer starts at codon 2 after the three alanines, reverse primer holds the stop codon; A short linker of three alanine residues connects MBP and EZH2; no PreScission site between them; Present as a subunit of the co-purified PRC2 5m complex; also called tagged EZH2; MBP-tagged EZH2; source: Sf9, baculovirus, co-expressed and co-purified with the other PRC2 subunits (amylose resin, …)
# T1 sequence (Q15910 other isoform, or with tags, fused parts or gaps): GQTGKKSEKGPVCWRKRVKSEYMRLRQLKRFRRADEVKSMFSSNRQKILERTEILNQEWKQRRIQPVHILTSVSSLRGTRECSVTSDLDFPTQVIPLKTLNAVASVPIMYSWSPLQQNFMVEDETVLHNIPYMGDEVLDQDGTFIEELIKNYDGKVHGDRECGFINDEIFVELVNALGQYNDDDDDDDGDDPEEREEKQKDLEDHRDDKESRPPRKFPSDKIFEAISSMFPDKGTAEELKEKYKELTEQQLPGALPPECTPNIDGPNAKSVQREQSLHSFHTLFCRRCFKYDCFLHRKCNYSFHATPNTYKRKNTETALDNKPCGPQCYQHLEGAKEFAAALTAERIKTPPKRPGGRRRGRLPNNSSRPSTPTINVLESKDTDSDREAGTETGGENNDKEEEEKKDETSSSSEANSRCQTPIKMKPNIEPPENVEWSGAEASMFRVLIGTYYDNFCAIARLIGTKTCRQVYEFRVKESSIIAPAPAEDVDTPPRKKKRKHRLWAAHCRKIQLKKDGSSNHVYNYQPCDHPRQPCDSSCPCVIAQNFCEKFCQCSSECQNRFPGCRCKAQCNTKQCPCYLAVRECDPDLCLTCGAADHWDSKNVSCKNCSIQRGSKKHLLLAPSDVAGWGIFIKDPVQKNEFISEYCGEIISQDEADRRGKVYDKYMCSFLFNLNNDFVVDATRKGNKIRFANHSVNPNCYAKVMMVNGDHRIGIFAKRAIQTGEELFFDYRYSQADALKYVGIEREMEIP
# Assay: pull-down; called co-immunoprecipitation by the paper; 0.1 mg purified nucleic acid-free PRC2 5m co-expressed with both MBP-EZH2 (uncleavable) and untagged EZH2, bound to amylose beads 30 min at 4°C in 10 mM Tris-HCl pH 7.5, 250 mM NaCl, 1 mM TCEP, washed twice, eluted with 20 mM maltose; immunoblotting (semi-quantitative for EZH2)
# Conditions: both partners purified
binder,measurement,value
B1,ratio of tagged to untagged EZH2 in the MBP pull down,~3 tagged:untagged
